# From IntAct's records for PubMed 18805096
# B1: Cytoplasmic FMR1-interacting protein 1 (Homo sapiens), Q7L576 (parent)
# chain: MAAQVTLEDALSNVDLLEELPLPDQQPCIEPPPSSLLYQPNFNTNFEDRNAFVTGIARYIEQATVHSSMNEMLEEGQEYAVMLYTWRSCSRAIPQVKCNEQPNRVEIYEKTVEVLEPEVTKLMNFMYFQRNAIERFCGEVRRLCHAERRKDFVSEAYLITLGKFINMFAVLDELKNMKCSVKNDHSAYKRAAQFLRKMADPQSIQESQNLSMFLANHNKITQSLQQQLEVISGYEELLADIVNLCVDYYENRMYLTPSEKHMLLKVMGFGLYLMDGSVSNIYKLDAKKRINLSKIDKYFKQLQVVPLFGDMQIELARYIKTSAHYEENKSRWTCTSSGSSPQYNICEQMIQIREDHMRFISELARYSNSEVVTGSGRQEAQKTDAEYRKLFDLALQGLQLLSQWSAHVMEVYSWKLVHPTDKYSNKDCPDSAEEYERATRYNYTSEEKFALVEVIAMIKGLQVLMGRMESVFNHAIRHTVYAALQDFSQVTLREPLRQAIKKKKNVIQSVLQAIRKTVCDWETGHEPFNDPALRGEKDPKSGFDIKVPRRAVGPSSTQLYMVRTMLESLIADKSGSKKTLRSSLEGPTILDIEKFHRESFFYTHLINFSETLQQCCDLSQLWFREFFLELTMGRRIQFPIEMSMPWILTDHILETKEASMMEYVLYSLDLYNDSAHYALTRFNKQFLYDEIEAEVNLCFDQFVYKLADQIFAYYKVMAGSLLLDKRLRSECKNQGATIHLPPSNRYETLLKQRHVQLLGRSIDLNRLITQRVSAAMYKSLELAIGRFESEDLTSIVELDGLLEINRMTHKLLSRYLTLDGFDAMFREANHNVSAPYGRITLHVFWELNYDFLPNYCYNGSTNRFVRTVLPFSQEFQRDKQPNAQPQYLHGSKALNLAYSSIYGSYRNFVGPPHFQVICRLLGYQGIAVVMEELLKVVKSLLQGTILQYVKTLMEVMPKICRLPRHEYGSPGILEFFHHQLKDIVEYAELKTVCFQNLREVGNAILFCLLIEQSLSLEEVCDLLHAAPFQNILPRVHVKEGERLDAKMKRLESKYAPLHLVPLIERLGTPQQIAIAREGDLLTKERLCCGLSMFEVILTRIRSFLDDPIWRGPLPSNGVMHVDECVEFHRLWSAMQFVYCIPVGTHEFTVEQCFGDGLHWAGCMIIVLLGQQRRFAVLDFCYHLLKVQKHDGKDEIIKNVPLKKMVERIRKFQILNDEIITILDKYLKSGDGEGTPVEHVRCFQPPIHQSLASS
# Variants of: B1
# Details: with if4e_human EIF4E
row,Variant,effect of a mutation on the interaction
1,D724A;R726A,decreasing interaction
2,K725E,decreasing interaction
